Reference: patent US11485792B2, “Antibodies, uses thereof and conjugates thereof” (Polytherics Limited, priority 2016, dated 2022)

B1: ADC 34 (conjugate)
heavy: QVQLVESGGGVVQPGRSLRLSCAASGFTFSNYVMHWVRQAPGKGLEWVAIIWYDGSNKYYADSVKGRFTISRDNSKNTLYLQMNSLRAEDTAVYYCAGGYNWNYEYHYYGMDVWGQGTTVTVSS
light: DIQMTQSPSSLSASVGDRVTITCRASQGITNYLAWFQQKPGKAPKSLIYAASSLQSGVPSKFSGSGSGTDFSLTISSLQPEDFATYYCQQYNSYPITFGQGTRLEIK
modifications: non-natural residues
B2: AB-P2: prior art anti-PSMA antibody, heavy and light chain SEQ ID No 37 and 38 (antibody, V domains shown)
VH: MELGLRWVLLVALLRGVQCQVQLVESGGGVVQPGRSLRLSCAASGFTFSNYVMHWVRQAPGKGLEWVAIIWYDGSNKYYADSVKGRFTISRDNSKNTLYLQMNSLRAEDTAVYYCAGGYNWNYEYHYYGMDVWGQGTTVTVSS
VL: MRVPAQLLGLLLLCFPGARCDIQMTQSPSSLSASVGDRVTITCRASQGITNYLAWFQQKPGKAPKSLIYAASSLQSGVPSKFSGSGSGTDFSLTISSLQPEDFATYYCQQYNSYPITFGQGTRLEIK

Columns and labels:
PC-3 cells = assay: In vitro cell viability assay (CellTiter Glo), PC-3 (PSMA-negative control); type: cell-based; conditions: Example 16; PSMA-negative PC-3 (negative control), 96 h
Source text: Loss of tumour cell viability following treatment with cytotoxic drugs or ADCs in vitro can be measured by growing cell lines in the presence of increasing concentrations of drugs or ADCs and quantifying the loss of proliferation or metabolic activity using CellTiter Glo® Luminescence reagent (Promega Corp. Technical Bulletin TB288; Lewis Phillips G. D, Cancer Res 2008; 68:9280-9290). The protocol describes cell seeding, drug treatment and determination of the cell viability in reference to untreated cells based on ATP synthesis, which is directly related to the number of cells present in the well.
PSMA-positive LNCaP (clone FGC) and C4-2 cells, as well as PSMA-negative PC-3 cells were detached with TrypLE and resuspended in complete medium. Cells were counted using disposable Neubauer counting chambers and cell density adjusted to 10×10^4 cells/mL for LNCaP, 2×10^4 cells/mL for C4-2 and 1×10^4 cells/mL for PC-3 respectively. […]
The cell viability assay was carried out using the Cell-Titer Glo® Luminescence reagent, as described by the manufacturer's instructions, (Promega Corp. Technical Bulletin TB288; Lewis Phillips G. D, Cancer Res 2008; 68:9280-9290). Luminescence was recorded using a plate reader (e.g. Molecular Devices Spectramax M3 plate reader), and data subsequently analysed using a four parameter non-linear regression model. […]

[1] = Heat stress test with SEC analysis of aggregation; type: physicochemical
Procedure: Antibody samples (0.5 mg/mL in PBS) were incubated at 75° C. for 30 min followed by incubation in an ice-bath for 5 min prior to being analysed for their extent of aggregation. Analysis of antibody solutions was carried out by Size Exclusion Chromatography (SEC) and by turbidity measurements.
SEC was performed using a TOSOH Bioscience TSK gel Super SW 3000 column. UV absorbance at 280 nm was monitored during an isocratic elution with a 0.2 M Potassium phosphate buffer, pH 6.8 (0.2 M potassium chloride and 15% isopropanol). The elution times and number of peaks indicate whether the sample contains aggregated, degraded or native antibody. The % area under the curve (Abs280) was used to determine the quantity of each species present in the SEC analysis.

[2] = Fluorescence-based thermal-shift assay (Sypro Orange); type: physicochemical
Procedure: Antibody was diluted to 1.5 mg/mL with DPBS, pH 7.1-7.5, and the concentration determined by measuring OD at 280 nm using a Nanodrop instrument. SEC analysis was carried out prior to thermal-shift analysis to confirm that over 99% of each antibody was present in their native form.
An RT-PCR instrument (StepOnePlus, Applied Biosystems) was set-up for a fluorescence-based thermal-shift assay using Sypro Orange dye as a fluorescent reporter. The assay was set-up in a PCR 96 well plate with five replicates per antibody sample and a final reaction volume of 20 μL per well. 13.5 μL of DPBS was pipetted in each well followed by the addition of 4 μL of antibody. […] Fluorescence data was collected throughout the temperature ramp, using an excitation filter at 470 nm and emission filter at 610 nm. […] The melting curves generated by the instrument software during the thermal unfolding of the antibodies result from the plotting of fluorescence vs. temperature. The melting temperature (Tm), is the temperature at which half of the antibody molecules are unfolded, (indicated by a 50% increase in fluorescence), and can be determined from the inflection point of the melting curve. The Tms are conventionally calculated by plotting a derivative plot. This is the change in fluorescence divided by the […] (the change rate) plotted on the Y-axis versus temperature on the X-axis. […]

[3] = post stress test: 0.5 mg/mL in PBS, 75° C. for 30 min, then ice-bath 5 min, SEC

Molecule	IC50 (PC-3 cells)	Ab in aggregated form (%) [1, 3]	Ab in native conformation (%) [1, 3]	stability in heat stress SEC analysis (in words) ([1]; propensity to aggregate upon heating and cooling)	Tm1 (° C.) ([2]; first transition peak: unfolding of the CH2 and Fab domains)	Tm2 (° C.) ([2]; second transition peak: unfolding of the CH3 domain)
B1	> 50 nM	–	–	–	–	–
B2	–	100%	0%	less stable than AB-03	68.9 ± 0.1 °C	75.2 ± 0.1 °C
